According to PMC5159797, “Phosphorylation of SKAP by GSK3β ensures chromosome segregation by a temporal inhibition of Kif2b activity” (Scientific Reports, 2016):

Target: T1, His-GSK3β (human, UniProt P49841 1-420)
T1 construct: GSK3β; the construct is not described further; The pull-down methods speak of His-tagged fusion proteins expressed in bacterial cells, the protein methods of insect cells; also called 6×His-GSK3β; His-tagged GSK3β; source: insect cells, purified (Ni-NTA agarose)
Experiment: pull-down; GST fusion protein-bound sepharose beads incubated 2 h at 4 °C with purified MBP fusion proteins or His-tagged protein; PBS, 0.1% Triton X-100; anti-MBP or anti-His blot
Conditions: both partners purified

T1 sequence (P49841 whole entry, the tested form may be a part): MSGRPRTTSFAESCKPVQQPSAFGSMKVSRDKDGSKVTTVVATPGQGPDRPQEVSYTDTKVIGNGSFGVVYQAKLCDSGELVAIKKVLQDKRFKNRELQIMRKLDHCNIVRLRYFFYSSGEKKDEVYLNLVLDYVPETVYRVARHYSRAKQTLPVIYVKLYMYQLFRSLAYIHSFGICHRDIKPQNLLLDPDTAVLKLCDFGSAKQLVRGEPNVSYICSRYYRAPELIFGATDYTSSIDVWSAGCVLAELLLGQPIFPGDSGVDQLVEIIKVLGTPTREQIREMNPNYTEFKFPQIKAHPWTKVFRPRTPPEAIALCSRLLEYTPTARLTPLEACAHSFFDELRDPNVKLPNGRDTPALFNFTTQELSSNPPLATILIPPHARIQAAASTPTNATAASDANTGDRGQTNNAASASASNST

binding result: binds
B1: GST-SKAP (natural protein, UniProt Q9Y448 1-316, looked up)
chain: MAAPEAPPLDRVFRTTWLSTECDSHPLPPSYRKFLFETQAADLAGGTTVAAGNLLNESEKDCGQDRRAPGVQPCRLVTMTSVVKTVYSLQPPSALSGGQPADTQTRATSKSLLPVRSKEVDVSKQLHSGGPENDVTKITKLRRENGQMKATDTATRRNVRKGYKPLSKQKSEEELKDKNQLLEAVNKQLHQKLTETQGELKDLTQKVELLEKFRDNCLAILESKGLDPALGSETLASRQESTTDHMDSMLLLETLQEELKLFNETAKKQMEELQALKVKLEMKEERVRFLEQQTLCNNQVNDLTTALKEMEQLLEM
notes: SKAP (small kinetochore-associated protein), full length, cloned into pGEX-5X-3; also called GST-tagged SKAP full length; GST-SKAP-WT; source: E. coli Rosetta (DE3), purified on glutathione-sepharose 4B
